One assay has as its target T1, hLAMP-1 (human, UniProt P11279 29-382, limits assumed).
T1 construct: Non-target panel protein
T1 sequence (looked up): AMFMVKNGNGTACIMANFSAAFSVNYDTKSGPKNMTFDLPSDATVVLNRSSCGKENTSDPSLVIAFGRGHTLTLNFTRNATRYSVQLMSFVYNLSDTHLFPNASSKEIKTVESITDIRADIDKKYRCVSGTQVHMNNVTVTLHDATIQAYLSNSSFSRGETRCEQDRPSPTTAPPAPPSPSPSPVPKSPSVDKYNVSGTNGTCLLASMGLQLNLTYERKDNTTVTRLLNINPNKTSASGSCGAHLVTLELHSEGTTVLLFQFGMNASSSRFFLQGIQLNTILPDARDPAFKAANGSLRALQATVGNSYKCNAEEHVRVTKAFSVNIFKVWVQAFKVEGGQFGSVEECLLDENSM
As to the kind of experiment: Biacore specificity assay: IgG immobilised (about 300 RU), antigen injected at 500 nM. Here is the method: (§1) Biacore specificity analyses were performed using the T-200 biosensor, series S CM5 chips, an amine-coupling kit, 10 mM sodium acetate immobilization buffer at pH 5.0, 10× HBS-P running buffer and NaOH for regeneration (GE Healthcare). A predefined ligand (IgG) immobilization program was set up to immobilize approximately 300 Response Units (RU) on the flow cell for each IgG to be tested. For Anti-RAGE and anti-A33, a panel of fully-purified recombinant target and non-target antigens were diluted in HBS-P running buffer to a final concentration of 500 nM. Four groups of antigens were examined, including: cell membrane proteins (mTRKB, hTRKB, mEGFR, hEGFR, hFceR1, hIL-21R, mICAM1, mICAM2, hICAM1, hCD33, hLAMP-1, hLOX-1, and), soluble signaling molecules (mTNFa, hVEGF, hCXCL13) and albumins (BSA, HSA and MSA). These proteins were injected at 50 μl/min for 3 min, followed by a 5 sec pulse of 20 mM NaOH for regeneration of the chip surface. For pTau, a series of pTau-derived phosphorylated and non-phosphorylated peptides were flowed, as in Shih et al.³. All sensorgrams were analyzed using the Biacore T-200 evaluation software.
On the technique in general: Surface plasmon resonance follows binding to a sensor surface in real time, without labels.

A further assay concerns the target T2, hCD33 (human, UniProt P20138 18-259, limits assumed).
T2 construct: Non-target panel protein
The assay is described as above. Here is the method: as §1

The target of another assay is T3, hVEGF (human, UniProt P15692-4 27-191, limits assumed).
T3 construct: Non-target panel protein
T3 sequence (P15692 other isoform, or with tags, fused parts or gaps limits assumed): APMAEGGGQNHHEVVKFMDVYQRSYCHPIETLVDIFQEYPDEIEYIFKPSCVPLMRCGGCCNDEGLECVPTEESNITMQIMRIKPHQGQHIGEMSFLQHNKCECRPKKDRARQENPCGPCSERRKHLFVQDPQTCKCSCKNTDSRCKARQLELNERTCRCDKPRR
Described as above. Here is the method: as §1

The target in the next assay is T4, hEGFR (human, UniProt P00533 25-645, limits assumed).
T4 construct: Non-target panel protein
Described as above. As for the experimental part: as §1

Another assay has as its target T5, mEGFR (mouse, UniProt Q01279 25-647, limits assumed).
T5 construct: Non-target panel protein
Described as above. Here is the method:
as §1

Assay [1] has as its target T6, RAGE (cognate target of the anti-RAGE antibodies; species not stated at the place) (Homo sapiens (Human), UniProt Q15109 23-342).
T6 construct: not shown: Carrier or tag of the soluble construct
Put plainly: HTRF epitope competition, IgG titrated; competitor parental IgG (Par-RAGE).

The target in another assay is T7, mRAGE (mouse, UniProt Q62151 24-342, limits assumed).
T7 construct: also called mouse RAGE
T7 sequence (Q62151 24-342 limits assumed): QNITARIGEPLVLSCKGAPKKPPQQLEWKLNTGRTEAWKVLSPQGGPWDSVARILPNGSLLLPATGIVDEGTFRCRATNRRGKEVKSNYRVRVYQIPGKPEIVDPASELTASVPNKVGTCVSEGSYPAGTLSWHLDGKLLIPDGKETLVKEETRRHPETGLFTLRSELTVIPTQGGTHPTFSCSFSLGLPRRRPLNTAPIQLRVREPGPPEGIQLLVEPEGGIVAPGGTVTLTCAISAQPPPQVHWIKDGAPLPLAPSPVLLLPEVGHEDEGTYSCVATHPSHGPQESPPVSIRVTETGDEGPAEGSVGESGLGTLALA
As to the kind of experiment: Biacore specificity assay: IgG immobilised (about 300 RU), antigen m-RAGE-fc injected at 500 nM. As for the experimental part:
as §1

T2 sequence (P20138 18-259 limits assumed): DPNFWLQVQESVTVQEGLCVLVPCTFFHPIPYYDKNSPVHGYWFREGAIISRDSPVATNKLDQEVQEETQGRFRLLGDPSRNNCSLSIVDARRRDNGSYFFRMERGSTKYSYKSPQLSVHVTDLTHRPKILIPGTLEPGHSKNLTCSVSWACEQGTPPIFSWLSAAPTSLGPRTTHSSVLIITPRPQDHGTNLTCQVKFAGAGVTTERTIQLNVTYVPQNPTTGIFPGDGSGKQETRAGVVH
T6 sequence (Q15109 23-342 limits assumed): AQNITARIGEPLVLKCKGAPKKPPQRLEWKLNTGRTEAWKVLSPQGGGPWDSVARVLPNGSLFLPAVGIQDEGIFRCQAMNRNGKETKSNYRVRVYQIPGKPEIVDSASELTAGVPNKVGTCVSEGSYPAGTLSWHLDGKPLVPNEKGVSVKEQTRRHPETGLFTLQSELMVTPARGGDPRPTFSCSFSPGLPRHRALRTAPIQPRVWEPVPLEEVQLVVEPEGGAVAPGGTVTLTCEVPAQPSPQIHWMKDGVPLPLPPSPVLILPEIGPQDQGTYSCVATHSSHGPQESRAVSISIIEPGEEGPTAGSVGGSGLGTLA

B1: C7-ABS-RAGE IgG (human IgG1) (antibody, V domains shown)
VH: EVQLVESGGGLVQPGGSLRLSCAASGFTFSSYWMSWVRQAPGKGLEWVASIDQDGSNKYYPDSVKGRFTISRDNAKNSLYLQMNSLRAEDTAVYYCARGGDITTGLDYWGQGTLVTVSS
VL: DIQMTQSPSSLSASVGDRVTITCRASQSIGSYLNWYQQKPGKAPKLLIYRASSLASGVPSRFSGSGSGTDFTLTISSLQPEDFATYYCLEFDEHPLTFGGGTKVEIK
notes: Human IgG1 format
As usually defined, the IC50 is the point on the concentration scale where inhibition reaches its midpoint. In the case of B1, the binding result in the assay with hLAMP-1 is on record as “no binding (tested: 500 nM)”; with hCD33, “no binding (tested: 500 nM)”; in the assay with hVEGF it was “no binding (tested: 500 nM)”; with hEGFR, “no binding (tested: 500 nM)”; in the assay with mEGFR it was “no binding (tested: 500 nM)”; in the assay with mRAGE, “binds”. In addition, the IC50 in assay [1] amounted to 5.8 nM.
